The source of these data is EP4545090A1 (Universität Leipzig, dated 2025).

What is called Kd is a measure of binding affinity in units of concentration. A lower Kd goes with a tighter complex.

The target in experiment [1] is IFNAR1 as used in the microscale thermophoresis binding assay (Homo sapiens (Human)) (UniProt P17181). Put plainly: microscale thermophoresis binding assay.
In experiment [2] the target is T1, IFNGR1, human, endogenous in podocytes (human, UniProt P15260 18-489).
T1 construct: whole, on cells
T1 sequence (looked up): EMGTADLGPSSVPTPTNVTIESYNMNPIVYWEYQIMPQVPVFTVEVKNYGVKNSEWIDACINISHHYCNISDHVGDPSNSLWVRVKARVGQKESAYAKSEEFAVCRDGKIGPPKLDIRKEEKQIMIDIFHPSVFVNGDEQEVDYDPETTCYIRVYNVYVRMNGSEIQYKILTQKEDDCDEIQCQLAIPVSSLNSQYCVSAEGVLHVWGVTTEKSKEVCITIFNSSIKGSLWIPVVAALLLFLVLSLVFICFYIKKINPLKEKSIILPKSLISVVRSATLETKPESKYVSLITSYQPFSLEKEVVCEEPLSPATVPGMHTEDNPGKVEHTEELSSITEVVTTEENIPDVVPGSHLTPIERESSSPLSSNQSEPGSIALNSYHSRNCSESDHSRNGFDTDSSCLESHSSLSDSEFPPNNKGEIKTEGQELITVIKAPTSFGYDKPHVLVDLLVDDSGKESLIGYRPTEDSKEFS
In words: TF co-immunoprecipitation from human podocyte lysates, immunoblot. In general terms: In western blotting, separated proteins are transferred to a membrane and probed.

Consider “tissue factor (TF) as used in the microscale thermophoresis binding assay (from UniProt P13726 33-251) (receptor)”, for which, in experiment [1], the Kd was determined as 1160 nM.

B1: tissue factor (TF), human, as expressed by cells (receptor)
chain: SGTTNTVAAYNLTWKSTNFKTILEWEPKPVNQVYTVQISTKSGDWKSKCFYTTDTECDLTDEIVKDVKQTYLARVFSYPAGNVESTGSAGEPLYENSPEFTPYLETNLGQPTIQSFEQVGTKVNVTVEDERTLVRRNNTFLSLRDVFGKDLIYTLYYWKSSSSGKKTAKTNTNEFLIDVDKGENYCFSVQAVIPSRTVNRKGTDSPVECMGQEKGEFREIFYIIGAVVFVVIILVIILAISLHKCRKAGVGQSWKENSPLNVS
notes: also called hTF; human TF
In the case of B1, the binding result in experiment [2] is on record as “no binding”.
